Assay results taken from the supplement of paper PMC9170038.

Tested on: MS2 coat protein
Experiment: apparent KD of MS2 coat protein; designed switch direction (-1 OFF switch, 1 ON switch): 1; higher = weaker reporter binding
In short: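 Normalised cluster fluorescence was curve-fitted, and each design's median over clusters is its apparent KD. Before this, SNAP-549-labelled MS2 coat protein was titrated from 0.7 or 1.5 nM, doubling to 3 µM, over RNA switches transcribed on Illumina chips by stalled E. coli RNA polymerase. Titrations had no input, 200 uM small-molecule ligand, or an oligonucleotide input, and steps lasted 0.8–1.5 h (lowest) to 10–20 min (highest).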

[1] = input ligand: microRNA oligo, concentration not stated
[2] = Eterna round: R95, input ligand: FMN 200 uM
[3] = Eterna round: R95, input ligand: microRNA oligo, concentration not stated
[4] = Eterna round: R95, input ligand: none

| Sequence | apparent KD of MS2 coat protein (input ligand: FMN 200 uM) [nM] | apparent KD of MS2 coat protein [1] [nM] | apparent KD of MS2 coat protein (input ligand: none) [nM] | apparent KD of MS2 coat protein [2] [nM] | apparent KD of MS2 coat protein [3] [nM] | apparent KD of MS2 coat protein [4] [nM] |
| --- | --- | --- | --- | --- | --- | --- |
| UUACUCAUGUAAGGAUAUGCAGCCGUUUCGGCUGCAGAAGGUACUAUAAUACAUGAGGAUCACCCAUGUCUAUAAAAUAAAGAC [Mat - Same State NG 1 - JL mod - D81] (Eterna round: R96, puzzle: Same State NG 1) | 69.5 | 24 | 32.5 |  |  |  |
| GAGUAGUUGAAAGGAUAUAGAUUAUUGUAGGAUCUAGAAGGUUCUAACAUGAGGAUCACCCAUGUAGGACUAUUCCUGUGUAUC [Parity 88 - Jieux - Same State NG 1] (Eterna round: R96, puzzle: Same State NG 1) | 9.56 | 9.27 | 12.6 |  |  |  |
| UAAGUCAUGUAAGGAUAUGCAGCCGAAACGGCUGCAGAAGGUACUAUAAUUACAUGAGGAUCACCCAUGUUAUAAAAUUUAUAU [Mat - Same State NG 1 - JL mod - D77] (Eterna round: R96, puzzle: Same State NG 1) | 22.4 | 39 | 54.5 |  |  |  |
| UAGUUUCAACGAGGAUAUAAUAGGUUCUAUUCGUGAUAUUGCGUACAUGAGGAUCACCCAUGUUAUUAGAAGGCGUAUGGGUUU [JR_SSNG2_Sub086] (Eterna round: R96, puzzle: Same State NG 2) | 89.9 | 59.8 | 77.9 |  |  |  |
| ACCGAGAGGCUAGGAUAUUAGGGCAUUUGCAUAUGAGAAGGAGCCAGAUGGCCACAUGAGGAUCACCCAUGUCAACCCUGGACA [Eternabot solution 4] (Eterna round: R96, puzzle: Same State NG 1) | 22.5 | 12.9 | 18.2 |  |  |  |
| GCUACCAAAGAAGCCAACAUGAGGAUCACCCAUGUAUGUUGGCAGGAUAUCGAUUGCAAAGCGAUCGAGAAGGGCUAAGGUAGC [Mat - Same State NG 3 - JL Mod - D88] (Eterna round: R96, puzzle: Same State NG 3) | 147 | 214 | 204 |  |  |  |
| GCUCGUGGUAUUGUCUACAUGAGGAUCACCCAUGUGGGUGCGGAGGAUAUCUACGUGUCUCAUGUAGAGAAGGUCGUCACGAGC [SameState NG3 #100] (Eterna round: R96, puzzle: Same State NG 3) | 119 | 119 | 102 |  |  |  |
| GGUCCGGCCUGAGCUGGACCGAAGCAUGUACAUGAGGAUCACCCAUGUCAUGUACAGGCUUUUUGCUCGUCUUAUUG [JL-shm-2.13 JL Mod] (puzzle: Sensor for hsa-mir-208a) |  |  |  | 705 | 14.4 | 683 |
| UUAAUAAAUCAAGGAUAUCACGUCGAAUAGACGUGAGAAGGUGAUCAUAACAUGAGGAUCACCCAUGUAUUACAUGAAUAUUAA [SSNG1/1-B1] (Eterna round: R96, puzzle: Same State NG 1) | 522 | 40 | 512 |  |  |  |
| AGUCCAGCCUGAGCUGGACAAAAGCAUGUACAUGAGGAUCACCCAUGUUCAUGUACAAGCUUUUUGCUCGUCUUGUA [salish99_208a_r3_102x] (puzzle: Sensor for hsa-mir-208a) |  |  |  | 367 | 17.2 | 483 |
| GAGGAACAUGAGGAUCACCCAUGUAAAGGGUUUAAAGGAUAUUAUUGGGAGAAAGUAGGGUAAGAAGGUUGAUUGG [JR_SS1_Sub087] (puzzle: Same State 1) |  |  |  | 120 | 127 | 168 |
| GUGGUCAGACAUGAGGAUCACCCAUGUGGAAUAAAUAAGGGAUAGGAUAUGGAAUAUAGGAUAUACCAGAAGGGUUGGUUGGUG (Eterna round: R96, puzzle: Same State NG 3) | 107 | 87.6 | 95.1 |  |  |  |
